The source of these data is PMC7760575, “TORC2-Dependent Ypk1-Mediated Phosphorylation of Lam2/Ltc4 Disrupts Its Association with the β-Propeller Protein Laf1 at Endoplasmic Reticulum-Plasma Membrane Contact Sites in the Yeast Saccharomyces cerevisiae” (Biomolecules, 2020).

One test has as its target T1, GST-Laf1 (S. cerevisiae, UniProt Q03177 1-834).
T1 construct: Laf1/Ymr102c, S. cerevisiae, WD40 repeat protein; plasmid described only as pGEX4T-1 Laf1, no limits stated; Probably the whole open reading frame (surmised); also called Ymr102c; Lam2/Ltc4-Associated Factor 1; source: E. coli BL21(DE3), purified (glutathione beads); not shown: GST, N-terminal, kept
T1 sequence (looked up): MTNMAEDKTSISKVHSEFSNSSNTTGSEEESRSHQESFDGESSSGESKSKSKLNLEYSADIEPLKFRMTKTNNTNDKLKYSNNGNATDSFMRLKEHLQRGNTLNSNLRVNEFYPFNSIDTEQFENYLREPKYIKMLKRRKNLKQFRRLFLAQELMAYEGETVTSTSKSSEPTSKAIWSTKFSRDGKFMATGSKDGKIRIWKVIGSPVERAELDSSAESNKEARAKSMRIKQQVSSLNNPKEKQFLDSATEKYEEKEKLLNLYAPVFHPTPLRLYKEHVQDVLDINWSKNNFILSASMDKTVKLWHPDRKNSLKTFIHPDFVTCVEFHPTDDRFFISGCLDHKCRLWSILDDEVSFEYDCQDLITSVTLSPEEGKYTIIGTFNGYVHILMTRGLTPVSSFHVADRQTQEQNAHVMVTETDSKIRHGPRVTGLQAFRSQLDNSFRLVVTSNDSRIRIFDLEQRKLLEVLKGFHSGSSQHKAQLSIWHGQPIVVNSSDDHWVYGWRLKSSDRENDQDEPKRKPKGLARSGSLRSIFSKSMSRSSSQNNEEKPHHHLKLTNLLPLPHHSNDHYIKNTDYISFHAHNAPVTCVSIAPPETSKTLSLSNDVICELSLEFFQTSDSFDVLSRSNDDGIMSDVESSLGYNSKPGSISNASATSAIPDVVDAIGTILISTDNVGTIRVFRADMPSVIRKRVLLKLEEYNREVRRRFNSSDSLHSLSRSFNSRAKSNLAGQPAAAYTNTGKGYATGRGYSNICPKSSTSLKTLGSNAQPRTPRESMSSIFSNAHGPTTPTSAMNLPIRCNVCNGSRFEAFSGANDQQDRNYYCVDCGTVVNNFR
Kind of test: pull-down; GST fusion (bait) and His6-tagged Lam fragment incubated 1 h at 4 °C, complexes on glutathione-agarose beads; binding buffer 81 mM NaCl, 4.5 mM KCl, 1.35 mM MgCl2, 0.09% Triton X-100, 0.1 mg/mL BSA, 20 mM HEPES pH 7.5; four washes; immunoblot (anti-His, anti-GST). The following applies: both partners purified. On the technique in general: Immunoblotting shows a protein as a band on a membrane.

The target of the next test is T2, GST-Dgr2 (S. cerevisiae, UniProt P32330 1-852).
T2 construct: Dgr2/Ykl121w, S. cerevisiae, WD40 repeat protein, paralog of Laf1; plasmid described only as pGEX4T-1 Dgr2, no limits stated; Probably the whole open reading frame (surmised); also called Ykl121w; pFR404; source: E. coli BL21(DE3), purified (glutathione beads); not shown: GST, N-terminal, kept
T2 sequence (looked up): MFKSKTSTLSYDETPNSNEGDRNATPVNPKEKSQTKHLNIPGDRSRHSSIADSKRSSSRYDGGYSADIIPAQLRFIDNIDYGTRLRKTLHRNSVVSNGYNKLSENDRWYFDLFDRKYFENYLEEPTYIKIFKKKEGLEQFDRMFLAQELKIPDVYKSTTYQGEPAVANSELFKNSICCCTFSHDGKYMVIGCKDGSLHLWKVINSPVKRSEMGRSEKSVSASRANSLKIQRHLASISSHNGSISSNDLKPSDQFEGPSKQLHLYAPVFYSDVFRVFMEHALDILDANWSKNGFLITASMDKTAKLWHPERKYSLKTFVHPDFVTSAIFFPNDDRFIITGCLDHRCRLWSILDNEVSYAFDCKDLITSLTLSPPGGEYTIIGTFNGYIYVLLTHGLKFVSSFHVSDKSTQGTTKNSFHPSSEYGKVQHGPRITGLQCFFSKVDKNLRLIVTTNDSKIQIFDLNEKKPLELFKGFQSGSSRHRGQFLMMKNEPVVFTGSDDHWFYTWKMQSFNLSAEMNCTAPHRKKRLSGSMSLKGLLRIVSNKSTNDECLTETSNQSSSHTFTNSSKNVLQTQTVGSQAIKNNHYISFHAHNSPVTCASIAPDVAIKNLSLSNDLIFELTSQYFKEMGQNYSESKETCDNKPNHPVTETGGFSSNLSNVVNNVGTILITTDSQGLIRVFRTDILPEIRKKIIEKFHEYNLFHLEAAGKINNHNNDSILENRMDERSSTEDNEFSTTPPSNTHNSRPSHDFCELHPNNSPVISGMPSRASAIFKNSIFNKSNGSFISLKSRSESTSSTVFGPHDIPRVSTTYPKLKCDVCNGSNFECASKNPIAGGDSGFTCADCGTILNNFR
The test is described as above. The following applies: both partners purified.

B1: Lam2(849–1259)-(His)6 (domain or fragment, S. cerevisiae, UniProt Q06681 849-1259, looked up)
chain: SNNDHLVIEANINAPLGKVVNLLYGEDVSYYERILKAQKNFEISPIPNNFLTKKIRDYAYTKPLSGSIGPSKTKCLITDTLEHYDLEDYVKVLSITKNPDVPSGNIFSVKTVFLFSWDKNNSTKLTVYNSVDWTGKSWIKSMIEKGTFDGVADTTKIMISEIKKILSDEDSNINSKHQASNNESEEEIINLPTIGPPVHDPTEPDFQKGKDDTVIDEKINIPVPLGTVFSLLYGDDTSYIKKIIENQNNFNVCDIPKFVNNAREITYTKKLNNSFGPKQTKCIVTETIEHMDLNSFFMVKQIVRSPDVPYGSSFSVHTRFFYSWGDHNTTNMKVVTNVVWTGKSMLKGTIEKGSIDGQRSSTKQLVDDLKKIISNASSTKKKSRRRGKTVNKRKSSPSTIKNEKNEENFED
notes: tandem StARkin domains, PH domain removed; also called pFR409; source: E. coli BL21(DE3), purified (glutathione beads, cut off with TEV protease); not shown: GST, N-terminal, cleaved; His6, C-terminal, kept
B1: in the test with GST-Laf1, the binding result was “binds”.

B2: Lam2(482–1259)-(His)6 (domain or fragment, S. cerevisiae, UniProt Q06681 482-1259, looked up)
chain: LGPKELNTSYRNSTYIDMARFENSQSNLSSHRARSKTLPANKALENAVGDEGNSKRNSRYSSYSNDMAFDDADERKFRSMSKKFLNRRSFSPSNLGNKVIPGINLRNSFNKNRNSSSDFFSTNQGQQMPRTSTAGSGNIHAIMGLDSGNDDFKLEGIEYASEKKNSEFHTLFKDCDINPNEKLIVDHSCALSRDILLQGRMYISDAHIGFFSNILGWVSTVFIPFKEIVQIEKKTTAGIFPNGIVIDTLHTKYIFASFMSRDATFDLITDVWNQIILGKKYRNGFGNNDDGTISDSSSAFFDDSDDNDDDGDLDDDDPDINSTDMTSSDDIDADVFNESNDLGKNQKSTNYLLGPNKHSPTTADFKPSNNDHLVIEANINAPLGKVVNLLYGEDVSYYERILKAQKNFEISPIPNNFLTKKIRDYAYTKPLSGSIGPSKTKCLITDTLEHYDLEDYVKVLSITKNPDVPSGNIFSVKTVFLFSWDKNNSTKLTVYNSVDWTGKSWIKSMIEKGTFDGVADTTKIMISEIKKILSDEDSNINSKHQASNNESEEEIINLPTIGPPVHDPTEPDFQKGKDDTVIDEKINIPVPLGTVFSLLYGDDTSYIKKIIENQNNFNVCDIPKFVNNAREITYTKKLNNSFGPKQTKCIVTETIEHMDLNSFFMVKQIVRSPDVPYGSSFSVHTRFFYSWGDHNTTNMKVVTNVVWTGKSMLKGTIEKGSIDGQRSSTKQLVDDLKKIISNASSTKKKSRRRGKTVNKRKSSPSTIKNEKNEENFED
notes: also called Lam2/Ltc4/Ysp2 fragment; pFR391; source: E. coli BL21(DE3), purified (glutathione beads, cut off with TEV protease); not shown: GST, N-terminal, cleaved; His6, C-terminal, kept
Consider B2, for which the binding result in the test with GST-Laf1 and with GST-Dgr2 was “binds” throughout.

B3: Lam2(482-1259; T518A L519A T1237A V1238A)-(His)6 (domain or fragment, S. cerevisiae, UniProt Q06681 482-1259, looked up)
chain: LGPKELNTSYRNSTYIDMARFENSQSNLSSHRARSKAAPANKALENAVGDEGNSKRNSRYSSYSNDMAFDDADERKFRSMSKKFLNRRSFSPSNLGNKVIPGINLRNSFNKNRNSSSDFFSTNQGQQMPRTSTAGSGNIHAIMGLDSGNDDFKLEGIEYASEKKNSEFHTLFKDCDINPNEKLIVDHSCALSRDILLQGRMYISDAHIGFFSNILGWVSTVFIPFKEIVQIEKKTTAGIFPNGIVIDTLHTKYIFASFMSRDATFDLITDVWNQIILGKKYRNGFGNNDDGTISDSSSAFFDDSDDNDDDGDLDDDDPDINSTDMTSSDDIDADVFNESNDLGKNQKSTNYLLGPNKHSPTTADFKPSNNDHLVIEANINAPLGKVVNLLYGEDVSYYERILKAQKNFEISPIPNNFLTKKIRDYAYTKPLSGSIGPSKTKCLITDTLEHYDLEDYVKVLSITKNPDVPSGNIFSVKTVFLFSWDKNNSTKLTVYNSVDWTGKSWIKSMIEKGTFDGVADTTKIMISEIKKILSDEDSNINSKHQASNNESEEEIINLPTIGPPVHDPTEPDFQKGKDDTVIDEKINIPVPLGTVFSLLYGDDTSYIKKIIENQNNFNVCDIPKFVNNAREITYTKKLNNSFGPKQTKCIVTETIEHMDLNSFFMVKQIVRSPDVPYGSSFSVHTRFFYSWGDHNTTNMKVVTNVVWTGKSMLKGTIEKGSIDGQRSSTKQLVDDLKKIISNASSTKKKSRRRGKAANKRKSSPSTIKNEKNEENFED
notes: also called pFR411; source: E. coli BL21(DE3), purified (glutathione beads, cut off with PreScission protease); not shown: GST, N-terminal, cleaved; His6, C-terminal, kept
Take B3: in the test with GST-Laf1, the binding result is “binds”.

B4: Lam2(482–1259; ∆644–760)-(His)6 (domain or fragment, S. cerevisiae, UniProt Q06681 482-1259, looked up)
chain: LGPKELNTSYRNSTYIDMARFENSQSNLSSHRARSKTLPANKALENAVGDEGNSKRNSRYSSYSNDMAFDDADERKFRSMSKKFLNRRSFSPSNLGNKVIPGINLRNSFNKNRNSSSDFFSTNQGQQMPRTSTAGSGNIHAIMGLDSGNDDFKLEGIEYASEKYRNGFGNNDDGTISDSSSAFFDDSDDNDDDGDLDDDDPDINSTDMTSSDDIDADVFNESNDLGKNQKSTNYLLGPNKHSPTTADFKPSNNDHLVIEANINAPLGKVVNLLYGEDVSYYERILKAQKNFEISPIPNNFLTKKIRDYAYTKPLSGSIGPSKTKCLITDTLEHYDLEDYVKVLSITKNPDVPSGNIFSVKTVFLFSWDKNNSTKLTVYNSVDWTGKSWIKSMIEKGTFDGVADTTKIMISEIKKILSDEDSNINSKHQASNNESEEEIINLPTIGPPVHDPTEPDFQKGKDDTVIDEKINIPVPLGTVFSLLYGDDTSYIKKIIENQNNFNVCDIPKFVNNAREITYTKKLNNSFGPKQTKCIVTETIEHMDLNSFFMVKQIVRSPDVPYGSSFSVHTRFFYSWGDHNTTNMKVVTNVVWTGKSMLKGTIEKGSIDGQRSSTKQLVDDLKKIISNASSTKKKSRRRGKTVNKRKSSPSTIKNEKNEENFED
notes: also called ∆PH; source: E. coli BL21(DE3), purified (glutathione beads, cut off with TEV protease); not shown: GST, N-terminal, cleaved; His6, C-terminal, kept
On to B4, for which, in the test with GST-Laf1, the binding result is listed as “binds”.

B5: Lam4(371–1177)-(His)6 (domain or fragment, S. cerevisiae, UniProt P38800 371-1177, looked up)
chain: SNLERKTVPSKWSVVSSSTTDGVKPRRRAKSMISAMADKQNTSSDVLQDCKKRLSFNSSNGLTNNDPEYEDREPREMSKKFLNRRSFSPGSISMGMKVLPSTALKYSLNKVKNSTDIASTIIPRPSMSNGRPSSGLRRSSSKSFSSTPVNIIEPSEENGRQSSIRIKGVEYASEKKDAEFHAIFKDSGVSPNERLILDHSCALSRDILLQGRMYISDQHIGFYSNILGWVSTVFIPFKTIVQIEKRATAGIFPNGIVIDTLHTKYTFASFTSRDATYDLITEVWNQIILGKRFRSNSNNTNSSSNSISDDENDDYDDDYDDYGDDDDDLYDNSNNISDSTDMTSSVSIGKPEDLPMPLQTDTPYGTGIPPLGPKIHSPTETVYKPAPNEKLVNESTIHASLGRVVNILFGKDVSYIMAILKAQKNSDISPIPVLVDSPTVSEGKKRDYSYVKTTPGAIGPGKTKCMITETIQHFNLEEYVQVLQTTKTPDVPSGNSFYVRTVYLLSWANNNETKLKLYVSVEWTGKSLIKSPIEKGTFDGVTDATKILVEELGNILTRSATKRKRSSKENTVTVSTLPKMEPSSHAPTEPDIQKDKDDSIIRENENIPAPLGTVVQLLFGSNTEYMQKVITRDKNNVNVETIPKFTPSLVEGGSRHYEYTKKLNNSIGPKQTKCLLTESIEHMDINNYVLVTQTTKTPDVPSGSNFAVESKIFLFWGQHDTTNMTVITKINWTSKSFLKGAIEKGSVEGQKVSVDYMLSELRDIISRAKSKKPVKKVMKSHDKHRPFHSKVEQKSSESRKSDDNKDI
notes: also called Lam4/Ltc3 fragment; pFR407; source: E. coli BL21(DE3), purified (glutathione beads, cut off with TEV protease); not shown: GST, N-terminal, cleaved; His6, C-terminal, kept
For the molecule B5, the binding result with GST-Laf1 and with GST-Dgr2 was “binds” each time.
